Source: the supplement of paper PMC5998384

Legend:
HeLa Kyoto [1] = assay: solubility in G1/S (NP-40 vs SDS abundance) (log2 ratio); higher = more soluble; conditions: cell cycle stage: G1/S
HeLa Kyoto [2] = assay: solubility change mitosis vs G1/S (difference of NP-40 vs SDS log2 ratios) (log2 ratio difference); higher = more soluble in mitosis
HeLa Kyoto [3] = assay: melting temperature (median over replicates), in situ; higher = more thermally stable
HeLa Kyoto [4] = assay: thermal stability score vs G1/S (z-score of summed log2 fold changes over temperatures); higher = more thermally stable than in G1/S
[5] = cell cycle stage: early G1 (4.5 h after nocodazole release)
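For melting temperature (median over replicates), in situ in this document: HeLa Kyoto cells synchronized by double thymidine or nocodazole block, proteins quantified by TMT10plex mass spectrometry, three independent biological replicates.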
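For solubility change mitosis vs G1/S (difference of NP-40 vs SDS log2 ratios) in this document: synchronized HeLa Kyoto cells (double thymidine block for G1/S, nocodazole release for mitosis), protein amounts in NP-40 versus SDS lysates quantified by mass spectrometry, three biological replicates.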
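For solubility in G1/S (NP-40 vs SDS abundance) in this document: HeLa Kyoto cells arrested at G1/S by double thymidine block, proteins quantified by TMT10plex mass spectrometry in mild NP-40 versus SDS extracts, three biological replicates.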
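For thermal stability score vs G1/S (z-score of summed log2 fold changes over temperatures) in this document: synchronized HeLa Kyoto cells, proteins quantified by TMT10plex mass spectrometry, three biological replicates, mitosis taken 0.5 h after nocodazole release, G1/S directly after double thymidine block.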

Chain of EMC10 (chain, as listed by the source): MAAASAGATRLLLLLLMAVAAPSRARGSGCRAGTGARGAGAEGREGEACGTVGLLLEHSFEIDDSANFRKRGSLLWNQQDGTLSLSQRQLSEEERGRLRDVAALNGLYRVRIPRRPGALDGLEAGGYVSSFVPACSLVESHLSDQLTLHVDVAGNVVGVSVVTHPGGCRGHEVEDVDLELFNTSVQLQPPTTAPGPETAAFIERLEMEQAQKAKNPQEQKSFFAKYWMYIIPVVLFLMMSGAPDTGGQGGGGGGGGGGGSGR

Row | Substance | solubility in G1/S (log2) (HeLa Kyoto [1]) | solubility change mitosis (log2) (HeLa Kyoto [2]) | melting temperature (HeLa Kyoto [3]; cell cycle stage: G1/S) | melting temperature (HeLa Kyoto [3]; cell cycle stage: mitosis) | thermal stability score (HeLa Kyoto [4]; [5]) | thermal stability score (HeLa Kyoto [4]; cell cycle stage: mitosis)
1 | MSSAPRRPAKGADSFCTPEPESLGPGTPGFPEQEEDELHRTLGVERFEEILQEAGSRGGEEPGRSYGEEDFEYHRQSSHHIHHPLSTHLPPDARRRKTPQGPGRKPRRRPGASPTGETPTIEEGEEDEDEASEAEGARALTQPSPVSTPSSVQFFLQEDDSADRKAERTSPSSPAPLPHQEATPRASKGAQAGTQVEEAEAEAVAVASGTAGGDDGGASGRPLPKAQPGHRSYNLQERRRIGSMTGAEQALLPRVPTDEIEAQTLATADLDLMKSHRFEDVPGVRRHLVRKNAKGSTQSGREGREPGPTPRARPRAPHKPHEVFVELNELLLDKNQEPQWRETARWIKFEEDVEEETERWGKPHVASLSFRSLLELRRTLAHGAVLLDLDQQTLPGVAHQVVEQMVISDQIKAEDRANVLRALLLKHSHPSDEKDFSFPRNISAGSLGSLLGHHHGQGAESDPHVTEPLMGGVPETRLEVERERELPPPAPPAGITRSKSKHELKLLEKIPENAEATVVLVGCVEFLSRPTMAFVRLREAVELDAVLEVPVPVRFLFLLLGPSSANMDYHEIGRSISTLMSDKQFHEAAYLADEREDLLTAINAFLDCSVVLPPSEVQGEELLRSVAHFQRQMLKKREEQGRLLPTGAGLEPKSAQDKALLQMVEAAGAAEDDPLRRTGRPFGGLIRDVRRRYPHYLSDFRDALDPQCLAAVIFIYFAALSPAITFGGLLGEKTQDLIGVSELIMSTALQGVVFCLLGAQPLLVIGFSGPLLVFEEAFFSFCSSNHLEYLVGRVWIGFWLVFLALLMVALEGSFLVRFVSRFTQEIFAFLISLIFIYETFYKLVKIFQEHPLHGCSASNSSEVDGGENMTWAGARPTLGPGNRSLAGQSGQGKPRGQPNTALLSLVLMAGTFFIAFFLRKFKNSRFFPGRIRRVIGDFGVPIAILIMVLVDYSIEDTYTQKLSVPSGFSVTAPEKRGWVINPLGEKSPFPVWMMVASLLPAILVFILIFMETQITTLIISKKERMLQKGSGFHLDLLLIVAMGGICALFGLPWLAAATVRSVTHANALTVMSKAVAPGDKPKIQEVKEQRVTGLLVALLVGLSIVIGDLLRQIPLAVLFGIFLYMGVTSLNGIQFYERLHLLLMPPKHHPDVTYVKKVRTLRMHLFTALQLLCLALLWAVMSTAASLAFPFILILTVPLRMVVLTRIFTDREMKCLDANEAEPVFDEREGVDEYNEMPMPV [SLC4A2] | 0.054 | 0.0677 | 53.9 °C | 54.1 °C | 0.464 | -0.912
2 | MAQFVRNLVEKTPALVNAAVTYSKPRLATFWYYAKVELVPPTPAEIPRAIQSLKKIVNSAQTGSFKQLTVKEAVLNGLVATEVLMWFYVGEIIGKRGIIGYDV [ATP5L] | -0.573 | 0.0203 | 55 °C | 52.8 °C | -1.18 | -2.02
3 | MEPRAVGVSKQDIREQIWGYMESQNLADFPRPVHHRIPNFKGSYLACQNIKDLDVFARTQEVKVDPDKPLEGVRLLVLQSKKTLLVPTPRLRTGLFNKITPPPGATKDILRKCATSQGVRNYSVPIGLDSRVLVDLVVVGSVAVSEKGWRIGKGEGYADLEYAMMVSMGAVSKETPVVTIVHDCQVVDIPEELVEEHDITVDYILTPTRVIATGCKRPKPMGITWFKISLEMMEKIPILRSLRAREQQAGKDVTLQGEHQHLPEPGCQQTVPLSVGRRPPDTPGPETNSMEAAPGSPPGEGAPLAADVYVGNLPGDARVSDLKRALRELGSVPLRLTWQGPRRRAFLHYPDSAAAQQAVSCLQGLRLGTDTLRVALARQQRDK [MTHFSD] | -0.0248 | 0.0284 | 54.7 °C | 53.5 °C | -0.334 | -0.971
4 | ZCCHC11 | -0.0583 | -0.11 | 50.6 °C | 49.4 °C | 0.72 | 1.31
5 | MMEDDGQPRTLYVGNLSRDVTEVLILQLFSQIGPCKSCKMITEHTSNDPYCFVEFYEHRDAAAALAAMNGRKILGKEVKVNWATTPSSQKKDTSNHFHVFVGDLSPEITTEDIKSAFAPFGKISDARVVKDMATGKSKGYGFVSFYNKLDAENAIVHMGGQWLGGRQIRTNWATRKPPAPKSTQENNTKQLRFEDVVNQSSPKNCTVYCGGIASGLTDQLMRQTFSPFGQIMEIRVFPEKGYSFVRFSTHESAAHAIVSVNGTTIEGHVVKCYWGKESPDMTKNFQQVDYSQWGQWSQVYGNPQQYGQYMANGWQVPPYGVYGQPWNQQGFGVDQSPSAAWMGGFGAQPPQGQAPPPVIPPPNQAGYGMASYQTQ [TIAL1] | 0.13 | -0.0732 | 52.3 °C | 52 °C | -1.16 | -2.29
6 | EMC10 | 0.514 | -0.339 | 52.2 °C | 54.1 °C | 1.37 | 0.155
7 | KNTC1 | -0.33 | -0.188 | 49.6 °C | 49.4 °C | -0.336 | 0.546
8 | MAVADLALIPDVDIDSDGVFKYVLIRVHSAPRSGAPAAESKEIVRGYKWAEYHADIYDKVSGDMQKQGCDCECLGGGRISHQSQDKKIHVYGYSMAYGPAQHAISTEKIKAKYPDYEVTWANDGY [PHPT1] | 0.345 | 0.028 | 52.9 °C | 53.5 °C | -0.712 | -1.99
9 | BAZ1A | -0.551 | 0.356 | 45.9 °C | 49 °C | 1.48 | 3.95
10 | MNNLSFSELCCLFCCPPCPGKIASKLAFLPPDPTYTLMCDESGSRWTLHLSERADWQYSSREKDAIECFMTRTSKGNRIACMFVRCSPNAKYTLLFSHGNAVDLGQMSSFYIGLGSRINCNIFSYDYSGYGASSGKPTEKNLYADIEAAWLALRTRYGIRPENVIIYGQSIGTVPSVDLAARYESAAVILHSPLTSGMRVAFPDTKKTYCFDAFPNIDKISKITSPVLIIHGTEDEVIDFSHGLALFERCQRPVEPLWVEGAGHNDVELYGQYLERLKQFVSQELVNL [ABHD17B] | 0.0257 | -0.163 | 54.9 °C | 54.3 °C | -2.83 | -2.95
11 | MFCVTPPELETKMNITKGGLVLFSANSNSSCMELSKKIAERLGVEMGKVQVYQEPNRETRVQIQESVRGKDVFIIQTVSKDVNTTIMELLIMVYACKTSCAKSIIGVIPYFPYSKQCKMRKRGSIVSKLLASMMCKAGLTHLITMDLHQKEIQGFFNIPVDNLRASPFLLQYIQEEIPDYRNAVIVAKSPASAKRAQSFAERLRLGIAVIHGEAQDAESDLVDGRHSPPMVRSVAAIHPSLEIPMLIPKEKPPITVVGDVGGRIAIIVDDIIDDVDSFLAAAETLKERGAYKIFVMATHGLLSSDAPRRIEESAIDEVVVTNTIPHEVQKLQCPKIKTVDISMILSEAIRRIHNGESMSYLFRNIGLDD [PRPSAP2] | 0.117 | -0.121 | 57.5 °C | 57.4 °C | -0.303 | -0.671
12 | MSDYSTGGPPPGPPPPAGGGGGAGGAGGGPPPGPPGAGDRGGGGPGGGGPGGGSAGGPSQPPGGGGPGIRKDAFADAVQRARQIAAKIGGDAATTVNNSTPDFGFGGQKRQLEDGDQPESKKLASQGDSISSQLGPIHPPPRTSMTEEYRVPDGMVGLIIGRGGEQINKIQQDSGCKVQISPDSGGLPERSVSLTGAPESVQKAKMMLDDIVSRGRGGPPGQFHDNANGGQNGTVQEIMIPAGKAGLVIGKGGETIKQLQERAGVKMILIQDGSQNTNVDKPLRIIGDPYKVQQACEMVMDILRERDQGGFGDRNEYGSRIGGGIDVPVPRHSVGVVIGRSGEMIKKIQNDAGVRIQFKQDDGTGPEKIAHIMGPPDRCEHAARIINDLLQSLRSGPPGPPGGPGMPPGGRGRGRGQGNWGPPGGEMTFSIPTHKCGLVIGRGGENVKAINQQTGAFVEISRQLPPNGDPNFKLFIIRGSPQQIDHAKQLIEEKIEGPLCPVGPGPGGPGPAGPMGPFNPGPFNQGPPGAPPHAGGPPPHQYPPQGWGNTYPQWQPPAPHDPSKAAAAAADPNAAWAAYYSHYYQQPPGPVPGPAPAPAAPPAQGEPPQPPPTGQSDYTKAWEEYYKKIGQQPQQPGAPPQQDYTKAWEEYYKKQAQVATGGGPGAPPGSQPDYSAAWAEYYRQQAAYYGQTPGPGGPQPPPTQQGQQQAQ [KHSRP] | 0.523 | 0.0471 | 55.4 °C | 55.7 °C | 1.92 | 1.64
13 | MAALGPSSQNVTEYVVRVPKNTTKKYNIMAFNAADKVNFATWNQARLERDLSNKKIYQEEEMPESGAGSEFNRKLREEARRKKYGIVLKEFRPEDQPWLLRVNGKSGRKFKGIKKGGVTENTSYYIFTQCPDGAFEAFPVHNWYNFTPLARHRTLTAEEAEEEWERRNKVLNHFSIMQQRRLKDQDQDEDEEEKEKRGRRKASELRIHDLEDDLEMSSDASDASGEEGGRVPKAKKKAPLAKGGRKKKKKKGSDDEAFEDSDDGDFEGQEVDYMSDGSSSSQEEPESKAKAPQQEEGPKGVDEQSDSSEESEEEKPPEEDKEEEEEKKAPTPQEKKRRKDSSEESDSSEESDIDSEASSALFMAKKKTPPKRERKPSGGSSRGNSRPGTPSAEGGSTSSTLRAAASKLEQGKRVSEMPAAKRLRLDTGPQSLSGKSTPQPPSGKTTPNSGDVQVTEDAVRRYLTRKPMTTKDLLKKFQTKKTGLSSEQTVNVLAQILKRLNPERKMINDKMHFSLKE [GTF2F1] | 0.237 | 0.126 | 52.7 °C | 53.3 °C | -0.52 | -1.74
14 | CLPX | 0.103 | -0.0641 | 50.6 °C | 50.2 °C | 2.55 | 0.77
15 | MWALCSLLRSAAGRTMSQGRTISQAPARRERPRKDPLRHLRTREKRGPSGCSGGPNTVYLQVVAAGSRDSGAALYVFSEFNRYLFNCGEGVQRLMQEHKLKVARLDNIFLTRMHWSNVGGLSGMILTLKETGLPKCVLSGPPQLEKYLEAIKIFSGPLKGIELAVRPHSAPEYEDETMTVYQIPIHSEQRRGKHQPWQSPERPLSRLSPERSSDSESNENEPHLPHGVSQRRGVRDSSLVVAFICKLHLKRGNFLVLKAKEMGLPVGTAAIAPIIAAVKDGKSITHEGREILAEELCTPPDPGAAFVVVECPDESFIQPICENATFQRYQGKADAPVALVVHMAPASVLVDSRYQQWMERFGPDTQHLVLNENCASVHNLRSHKIQTQLNLIHPDIFPLLTSFRCKKEGPTLSVPMVQGECLLKYQLRPRREWQRDAIITCNPEEFIVEALQLPNFQQSVQEYRRSAQDGPAPAEKRSQYPEIIFLGTGSAIPMKIRNVSATLVNISPDTSLLLDCGEGTFGQLCRHYGDQVDRVLGTLAAVFVSHLHADHHTGLPSILLQRERALASLGKPLHPLLVVAPNQLKAWLQQYHNQCQEVLHHISMIPAKCLQEGAEISSPAVERLISSLLRTCDLEEFQTCLVRHCKHAFGCALVHTSGWKVVYSGDTMPCEALVRMGKDATLLIHEATLEDGLEEEAVEKTHSTTSQAISVGMRMNAEFIMLNHFSQRYAKVPLFSPNFSEKVGVAFDHMKVCFGDFPTMPKLIPPLKALFAGDIEEMEERREKRELRQVRAALLSRELAGGLEDGEPQQKRAHTEEPQAKKVRAQ [ELAC2] | 0.0837 | -0.0127 | 56.2 °C | 56.8 °C | -1.66 | -2.38
16 | MAGSRLPRQLFLQGVAAVFMFAFASLYTQIPGLYGPEGILPARRTLRPQGKGRWQQLWETPTLLWEAPRLGLDTAQGLELLSLLGALVALGALLLSPLRHPVIYLLLWAAYLSACQVGQVFLYFQWDSLLLETGFLAVLVAPLRPASHRKEAPQGRQAGALPHEDLPFWLVRWLLFRLMFASGVVKLTSRCPAWWGLTALTYHYETQCLPTPAAWFAHHLPVWLHKLSVVATFLIEIAVPPLFFAPIRRLRLAAFYSQVLLQVLIIITGNYNFFNLMTLVLTTALLDDQHLAAEPGHGSRKKTATSWPKALLATLSLLLELAVYGLLAYGTVHYFGLEVDWQQRTIHSRTTFTFHQFSQWLKTLTLPTVWLGVASLVWELLSALWRWTQVRGWLRKLSAVVQLSLVGTATVALFLISLVPYSYVEPGTHGRLWTGAHRLFGAVEHLQLANSYGLFRRMTGLGGRPEVVLEGSYDGHHWTEIEFMYKPGNLSRPPPVVVPHQPRLDWQMWFAALGPHTHSPWFTSLVLRLLQGKEPVIRLVQSQVARYPFHKQPPTYVRAQRYKYWFSQPGEQGQWWRRQWVEEFFPSVSLGDPTLETLLRQFGLQEKSPPRTRSANSTLAQALHWTRSQLSPLEAPALLWGLLMAVGAVRFVQALLAPCSLRSSPLAPVSGEKRRPASQKDSGAASEQATAAPNPCSSSSRTTRRKK [LMF2] | -0.171 | -0.0691 | 51.9 °C | 52.8 °C | -0.462 | -1.11
